Results taken from patent EP1073891B1, “METHOD OF PREDICTING RECEPTOR MODULATING ACTIVITY” (Duke University, priority 1998, dated 1999).

Experiments:
[1] = molecular target: T1, estrogen receptor beta (ERβ-VP16) (Homo sapiens, UniProt Q92731); assay: Mammalian two-hybrid, specificity of peptide-nuclear receptor interaction (Example 4.2); assay type: cell-based; settings: mammalian two-hybrid (Fig. 8)
T1 construct: expressed in transfected cells
Text: Peptide sequences representing each class was fused to the DNA binding domain (DBD) of the yeast transcription factor Ga14. HepG2 cells were then transiently transfected with expression vectors for ERα-VP16 and the Gal4-peptide fusion proteins. In addition, a luciferase reporter construct under the control of 5 copies of a Ga14 upstream enhancer element was also transfected along with a pCMV-β galactosidase vector to normalize for transfection efficiency. Transfection of the Ga14 DBD alone is included as control. Cells were then induced with various ligands as indicated in the figure and assayed for luciferase activity and β galactosidase activity. Normalized response was obtained by dividing the luciferase activity by the β galactosidase activity.
The specificity of peptide-nuclear receptor interaction was analyzed (Fig. 8) using the mammalian two-hybrid system. Experimental design is the same as in figure 2 except that either progesterone receptor (PRB-VP16), estrogen receptor beta (ERβ-VP16), glucocorticoid receptor (GR-VP16) or thyroid receptor beta (TRβ-VP16) was tested.

[2] = molecular target: T2, estrogen receptor α (ERα) (Homo sapiens, UniProt P03372); assay: LexA yeast two hybrid, β-galactosidase activity assay (Example 3); assay type: cell-based
T2 construct: The full length estrogen receptor was subcloned in frame into the EcoRI and XhoI sites of pJG4-5; expressed in transfected cells; host or cells: Saccharomyces cerevisiae EGY48
T2 sequence (P03372 1-595): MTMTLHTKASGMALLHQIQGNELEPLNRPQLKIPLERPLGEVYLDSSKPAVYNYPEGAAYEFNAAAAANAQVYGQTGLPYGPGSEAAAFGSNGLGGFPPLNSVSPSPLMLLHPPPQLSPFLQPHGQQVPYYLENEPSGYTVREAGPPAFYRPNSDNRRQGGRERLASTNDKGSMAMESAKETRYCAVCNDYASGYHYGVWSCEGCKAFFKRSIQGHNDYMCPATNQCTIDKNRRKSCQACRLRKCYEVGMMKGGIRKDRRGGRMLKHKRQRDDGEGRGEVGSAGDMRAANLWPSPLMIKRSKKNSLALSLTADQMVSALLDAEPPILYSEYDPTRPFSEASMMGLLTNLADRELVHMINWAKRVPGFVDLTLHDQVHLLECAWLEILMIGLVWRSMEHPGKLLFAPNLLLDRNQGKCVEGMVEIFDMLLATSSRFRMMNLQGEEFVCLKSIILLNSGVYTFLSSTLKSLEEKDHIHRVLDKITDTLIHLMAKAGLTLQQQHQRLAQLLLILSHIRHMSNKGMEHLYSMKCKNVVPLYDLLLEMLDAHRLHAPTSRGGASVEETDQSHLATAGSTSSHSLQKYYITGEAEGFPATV
Text: The LexA system that we employ utilizes a bacterial DNA binding protein domain, LexA, and a bacterially derived transcriptional activation sequence, B42. Proteins or peptides of interest are fused in frame with these domains and expressed using episomal plasmids in a yeast cell. The interactions between these proteins/peptides of interest are registered by monitoring the level of the reporter gene product, β-galactosidase, by an enzymatic assay. The differences in the levels of β-galactosidase activities reflect the relative strengths of the protein interactions.
The yeast strains used in this study was EGY48 (MAT a trp1 his3 ura3 leu2::61exAops-LEU2) purchased from OriGeneTechnologies for yeast two hybrid analysis. This strain contains 6 LexA operators upstream of the LEU2 gene in the yeast genome and provides high sensitivity in detecting protein-protein interactions in the LexA two hybrid system. The plasmids used in this study were pEG202 (LexA-DNA binding domain), pJG4-5 (B42-activation domain), and the plasmid containing a β-galactosidase reporter, pJK103 (OriGene Technologies). The full length estrogen receptor was subcloned in frame into the EcoRI and XhoI sites of pJG4-5 to generate an ERα-B42 activation domain fusion. ERα was subcloned in the activation domain plasmid because ERα was able to autoactivate reporters when fused to the LexA DNA binding domain.
The peptide sequences used in this study were generated from synthetic oligos filled in by T7 Sequenase (Life Science) and subcloned into the EcoRI-XhoI sites of pEG202. The synthetic oligos were: [formula] [formula] [formula] [formula] The complementary synthetic oligo used to generate double stranded DNA was 3'XhoPrim, 5'-[…]. Each 5'-oligo was annealed to the 3'-oligo by heating to 90 °C for 15 minutes and cooled slowly to 35 °C. T7 sequenase was added and the fill-in reaction allowed to proceed at 30 °C for 30 minutes. The reaction was terminated by heat denaturing the enzyme at 65 °C for 1 hour, restriction digests were performed and the resulting DNA fragments subcloned into pEG202 to generate peptide-LexA DNA binding domain fusions.
The culture was diluted to ~2x10^6 cells/ml in the same media and allowed to grow at 30 °C until the cultures reached a density of ~1x10^7 cells/ml (∼4 hours). The yeast cells were pelleted by centurifugation, washed with extraction buffer (60 mM Na2HPO4, 40 mMNaH2PO4, 10 mM KCl, 1 mM MgSO4, 1mM PMSF, 7 mM 2-mercaptoethanol) and suspended in 200 µl of extraction buffer. 100 µl of acid-washed glass beads were added and cells were lysed by vigorous agitation for 10 minutes at 4 °C. Cellular debris was pelleted by centrifugation and the supernatant transferred to a clean tube. 10 µg of total cellular protein was diluted into complete Z buffer (60 mM Na2HPO4, 40 mMNaH2PO4 , 10 mM KCl, 1 mM MgSO4, 7 mM 2-mercaptoethanol) to a volume of 100 µl in a 96-well microplate. 80 µg of o-nitrophenyl-β-D-pyranoside (ONPG) in 20 µl was added to each well to initiate color development.
10µg of each protein extract was assayed for β-galactosidase activity using o-nitrophenyl-b-D-pyranoside as substrate. Activity units are defied as 1000* Abs405/minutes/mg/protein.
Values are in beta-galactosidase units (MOD/min/mg)

T1 sequence (Q92731 whole entry, species assumed): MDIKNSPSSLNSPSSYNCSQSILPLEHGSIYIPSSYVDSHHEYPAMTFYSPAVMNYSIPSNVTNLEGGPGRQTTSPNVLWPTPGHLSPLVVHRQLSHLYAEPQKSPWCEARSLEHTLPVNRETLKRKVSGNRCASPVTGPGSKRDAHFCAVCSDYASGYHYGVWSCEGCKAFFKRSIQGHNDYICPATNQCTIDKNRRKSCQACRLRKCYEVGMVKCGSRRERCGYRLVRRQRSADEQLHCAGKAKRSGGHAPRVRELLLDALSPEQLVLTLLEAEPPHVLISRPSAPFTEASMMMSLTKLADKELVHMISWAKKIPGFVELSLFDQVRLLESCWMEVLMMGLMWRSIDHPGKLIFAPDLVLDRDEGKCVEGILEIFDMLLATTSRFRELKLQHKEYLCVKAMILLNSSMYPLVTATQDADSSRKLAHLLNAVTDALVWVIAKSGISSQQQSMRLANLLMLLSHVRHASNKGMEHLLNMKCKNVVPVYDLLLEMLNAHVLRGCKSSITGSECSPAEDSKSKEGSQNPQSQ

Sequence	interaction with ERβ [1]	Peptide Interactions with ER Alpha, beta-galactosidase units, value ([2]; 4-hydroxy Tamoxifen) [MOD/min/mg]	Peptide Interactions with ER Alpha, beta-galactosidase units, value ([2]; Estradiol) [MOD/min/mg]	Peptide Interactions with ER Alpha, beta-galactosidase units, value ([2]; No Addition) [MOD/min/mg]	Peptide Interactions with ER Alpha, beta-galactosidase units, value ([2]; Tamoxifen Citrate) [MOD/min/mg]
SSNHQSSRLIELLSR [α/β I]	interact with the αβ I peptide in the presence of the appropriate agonist	–	–	–	–
SSLTSRDFGSWYASR [α II]	None of the receptors tested interact significantly	20100	30983	1224	8933
SSWDMHQFFWEGVSR [α/β III]	None of the receptors tested interact significantly	3194	605	381	600
SSPGSREWFKDMLSR [α/β V]	bound ERβ only in the presence of tamoxifen	4128	648	548	1005
